Laboratory results as given in patent US20260151453A1, “COMBINATION THERAPY FOR THE TREATMENT OF CANCER” (PEPTOMYC, S.L., priority 2022, published 2026).

Assays:
[1] = system: SUM149 cell-derived xenograft (CDX); experiment: SUM149 cell-derived xenograft (CDX) model, orthotopic in mammary fat-pad, tumour growth; type: in vivo; conditions: SUM149 CDX mice, 4 weeks; Omomyc 50 mg/kg intravenous once a week; Olaparib 50 mg/kg oral gavage 6 times a week; preliminary
Experimental: SUM149 cell-derived xenograft (CDX) model mice were used for in vivo studies. Each mouse was inoculated orthotopically in the mammary fat-pad with 5 million cells. As the tumours reached 100 mm^3, mice were randomised in 4 treatment groups. Specifically, mice were treated with Omomyc once a week (50 mg/kg, intravenous), with Olaparib 6 times a week (50 mg/kg oral gavage), with the combination of the 2 drugs (combo) or with vehicle alone for 4 weeks. Relative volume was calculated as a percentage of tumour growth from the day of randomization and beginning of treatments. At end-point the average of the groups were respectively: vehicle 901.8%, Omomyc 663.6%, Olaparib 623.6%, and combination 335.8%.

MDA-MB-231 cells [2] = experiment: Viability of MDA-MB-231 TNBC cells treated alone and in combination for 5 days; synergy score by SynergyFinder.org; type: cell-based; conditions: single agent, 5 days (FIG. 1A)
Experimental: Triple negative breast cancer (TNBC) cell lines MDA-MB-231, SUM149 and MX-1 were treated with increasing concentrations of Olaparib or Talazoparib and the Omomyc peptide sequence SEQ ID NO: 4, alone and in combination, for 5 days.
Then synergy score was calculated by SynergyFinder.org after having carried out 3 biological replicates.
(§1) Synergy scores can be interpreted as the average excess response due to drug interactions. Synergy scores close to 0 give limited confidence in synergy or antagonism. So, when the synergy scores are: less than −10, the interaction between two drugs is likely to be antagonistic. From −10 to 10, the interaction between two drugs is likely to be additive. Greater than 10, the interaction between two drugs is likely to be synergistic.

MDA-MB-231 cells [3] = experiment: Microarray analysis of gene expression in MDA-MB-231 cells; type: cell-based; conditions: data not shown
MIA-PACA-2 cells = experiment: Viability of PDAC MIA-PACA-2 cells treated alone and in combination for 5 days; synergy score by SynergyFinder.org; type: cell-based; conditions: MIA-PACA-2 cells, Omomyc added to Olaparib
From the text: as §1
Pancreatic ductal adenocarcinoma (PDAC) MIA-PACA-2 cells were treated with increasing concentrations of Olaparib and the Omomyc peptide sequence SEQ ID NO: 4 alone and in combination, for 5 days.
Then synergy score was calculated by SynergyFinder.org after having carried out 3 biological replicates as described above.

B1: Omomyc: Purified recombinant polypeptide of SEQ ID NO: 4: mutated bHLHZip domain of Myc (E61T, E68I, R74Q, R75N) with N-terminal methionine (protein)
chain: TEENVKRRTHNVLERQRRNELKRSFFALRDQIPELENNEKAPKVVILKKATAYILSVQAETQKLISEIDLLRKQNEQLKHKLEQLRNSCA
In the case of B1, the “Relative volume, percentage of tumour growth from the day of randomization (group average at end-point)” value [1] is reported as 663.6%, the viability of cells (MDA-MB-231 cells [2]) is reported as “significantly reduces viability” and the “expression of homologous recombination (HR-) and BRCA1/2-deficiency related genes and pathways” value (MDA-MB-231 cells [3]) is reported as “reduces the expression”. The “reversal of olaparib resistance” value (MIA-PACA-2 cells) was “able to revert olaparib resistance”.
